# T1: human FcγRIIb extracellular domain with C-terminal His-tag (human, UniProt P31994 43-217)
# T1 construct: also called human FcgRIIb
# T1 sequence: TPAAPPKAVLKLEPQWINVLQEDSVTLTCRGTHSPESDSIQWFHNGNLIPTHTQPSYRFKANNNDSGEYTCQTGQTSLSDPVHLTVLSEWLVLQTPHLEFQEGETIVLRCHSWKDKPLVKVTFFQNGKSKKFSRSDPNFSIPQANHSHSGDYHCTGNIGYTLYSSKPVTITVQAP
# T2: cynomolgus monkey FcγRIIb extracellular domain with C-terminal His-tag (cynomolgus monkey)
# T2 construct: also called cyno FcgRIIb; cynoFcγRIIb
# T2 chain: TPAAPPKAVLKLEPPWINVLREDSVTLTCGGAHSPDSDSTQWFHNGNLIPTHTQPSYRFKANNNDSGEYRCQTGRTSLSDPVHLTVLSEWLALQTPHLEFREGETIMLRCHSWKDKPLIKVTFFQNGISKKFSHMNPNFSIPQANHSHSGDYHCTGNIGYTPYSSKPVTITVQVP
# T3: human FcγRIIaR extracellular domain with C-terminal His-tag (human, UniProt P12318 34-217)
# T3 construct: also called human FcgRIIaR; FcγRIIa (type R)
# T3 chain: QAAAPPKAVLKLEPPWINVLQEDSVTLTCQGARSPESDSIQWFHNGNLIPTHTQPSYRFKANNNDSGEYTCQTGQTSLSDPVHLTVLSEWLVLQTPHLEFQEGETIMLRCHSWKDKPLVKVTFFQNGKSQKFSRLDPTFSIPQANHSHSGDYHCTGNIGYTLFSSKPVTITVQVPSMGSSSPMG
# T4: cynomolgus monkey FcγRIIa1 extracellular domain with C-terminal His-tag (cynomolgus monkey)
# T4 construct: also called cyno FcgRIIa1; cynoFcγRIIa1
# T4 chain: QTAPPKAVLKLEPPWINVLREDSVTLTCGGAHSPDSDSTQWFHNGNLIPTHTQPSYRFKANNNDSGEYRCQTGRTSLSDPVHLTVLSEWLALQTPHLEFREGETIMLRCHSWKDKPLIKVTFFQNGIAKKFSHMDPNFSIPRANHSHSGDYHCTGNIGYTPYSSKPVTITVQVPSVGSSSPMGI
# T5: cynomolgus monkey FcγRIIa2 extracellular domain with C-terminal His-tag (cynomolgus monkey)
# T5 construct: also called cyno FcgRIIa2; cynoFcγRIIa2
# T5 chain: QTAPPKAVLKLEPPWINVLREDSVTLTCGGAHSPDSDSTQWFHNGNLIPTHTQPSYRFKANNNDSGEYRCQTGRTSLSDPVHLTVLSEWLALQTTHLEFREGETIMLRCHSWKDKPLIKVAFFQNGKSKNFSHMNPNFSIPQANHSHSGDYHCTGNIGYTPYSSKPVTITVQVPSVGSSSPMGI
# T6: human FcγRIIaH extracellular domain with C-terminal His-tag (human, UniProt P12318 34-217)
# T6 construct: also called human FcgRIIaH; FcγRIIa (type H)
# T6 sequence: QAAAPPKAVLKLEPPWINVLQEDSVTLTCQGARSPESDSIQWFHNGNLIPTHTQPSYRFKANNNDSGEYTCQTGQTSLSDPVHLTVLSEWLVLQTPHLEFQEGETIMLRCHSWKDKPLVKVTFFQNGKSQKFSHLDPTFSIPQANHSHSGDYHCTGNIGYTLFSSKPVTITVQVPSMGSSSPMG
# T7: cynomolgus monkey FcγRIIIaS extracellular domain with C-terminal His-tag (cynomolgus monkey, UniProt Q8SPW2 21-206 at identity 1.00))
# T7 construct: also called cyno FcgRIIIaS; cynoFcγRIIIaS
# T7 chain: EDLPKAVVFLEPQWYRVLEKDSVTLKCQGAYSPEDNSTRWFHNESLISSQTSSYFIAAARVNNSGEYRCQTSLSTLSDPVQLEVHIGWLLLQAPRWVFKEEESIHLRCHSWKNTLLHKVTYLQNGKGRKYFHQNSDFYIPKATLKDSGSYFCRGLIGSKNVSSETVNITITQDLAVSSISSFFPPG
# Key:
# Assay in all cases: SPR (BIACORE); KD of SG1 / KD of variant;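 note: relative to parent M103205H795-SG1 carrying the SG1 human heavy chain constant region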
# [1] = molecular target: T1, human FcγRIIb extracellular domain with …
# [2] = molecular target: T8, human FcγRIIIaV extracellular domain with C-terminal His-tag (human, UniProt P08637 17-208)
# T8 construct: also called human FcgRIIIaV
# T8 sequence (P08637 17-208 F176V): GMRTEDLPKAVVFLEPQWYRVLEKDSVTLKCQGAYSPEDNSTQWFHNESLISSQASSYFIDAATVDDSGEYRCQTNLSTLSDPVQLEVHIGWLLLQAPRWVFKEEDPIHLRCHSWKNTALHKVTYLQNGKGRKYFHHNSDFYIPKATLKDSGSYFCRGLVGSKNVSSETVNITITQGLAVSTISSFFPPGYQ
# [3] = molecular target: T2, cynomolgus monkey FcγRIIb extracellular …
# [4] = molecular target: T3, human FcγRIIaR extracellular domain …
# [5] = molecular target: T4, cynomolgus monkey FcγRIIa1 …
# [6] = molecular target: T5, cynomolgus monkey FcγRIIa2 …
# [7] = molecular target: T6, human FcγRIIaH extracellular domain …
# [8] = molecular target: T7, cynomolgus monkey FcγRIIIaS …
KD fold (SG1 = 1) [1],KD fold (SG1 = 1) [2],KD fold (SG1 = 1) [3],KD fold (SG1 = 1) [4],KD fold (SG1 = 1) [5],KD fold (SG1 = 1) [6],KD fold (SG1 = 1) [7],KD fold (SG1 = 1) [8],Binder
1.2 fold,0.03 fold,1.4 fold,1.1 fold,0.6 fold,0.6 fold,1.9 fold,0.14 fold,"M103205H795-MY342/M103202L889-SK1 (antibody, human IgG1, kappa, Substitutions introduced into M103205H795-SG1, expressed with M103202L889-SK1 as light chain; EU numbering) heavy: QVTLKESGPVLVKPTETLTLTCTVSGIDLSHDDISWVRQAPGKGLEWVGIISYAGSTYYASWAKGRLTISKDTSKNQVVLTMTNMDPVDTATYYCARGVPAYSHGGDLWGQGTLVTVSSASTKGPSVFPLAPSSKSTSGGTAALGCLVKDYFPEPVTVSWNSGALTSGVHTFPAVLQSSGLYSLSSVVTVPSSSLGTQTYICNVNHKPSNTKVDKKVEPKSCDKTHTCPPCPAPELLLGPSVFLFPPKPKDTLMISRTPEVTCVVVDVSDEDPEVKFNWYVDGVEVHNAKTKPREELYNSTYRVVSVLTVLHQDWLNGKEYKCKVSNKALPKPIEKTISKAKGQPREPQVYTLPPSREEMTKNQVSLTCLVKGFYPSDIAVEWESNGQPENNYKTTPMVLDSDGSFFLYSKLTVDKSRWQQGNVFSCSVMHEALHNHYTQKSLSLSP light: DIVMTQSPATLSLSPGERATLSCTSSQSVYHANWLSWFQQKPGQPPKLLIYWASTLAYGVPSRFSGSGSGTDFTLTISSLQPEDAATYYCAGGYGGGRYAFGQGTKVEIKRTVAAPSVFIFPPSDEQLKSGTASVVCLLNNFYPREAKVQWKVDNALQSGNSQESVTEQDSKDSTYSLSSTLTLSKADYEKHKVYACEVTHQGLSSPVTKSFNRGEC"
3.1 fold,0.19 fold,2.4 fold,4.8 fold,1.5 fold,3 fold,2.1 fold,0.23 fold,"M103205H795-MY388/M103202L889-SK1 (antibody, human IgG1, kappa, Substitutions introduced into M103205H795-SG1, expressed with M103202L889-SK1 as light chain; EU numbering) heavy: QVTLKESGPVLVKPTETLTLTCTVSGIDLSHDDISWVRQAPGKGLEWVGIISYAGSTYYASWAKGRLTISKDTSKNQVVLTMTNMDPVDTATYYCARGVPAYSHGGDLWGQGTLVTVSSASTKGPSVFPLAPSSKSTSGGTAALGCLVKDYFPEPVTVSWNSGALTSGVHTFPAVLQSSGLYSLSSVVTVPSSSLGTQTYICNVNHKPSNTKVDKKVEPKSCDKTHTCPPCPAPELLTGPIVFLFPPKPKDTLMISRTPEVTCVVVDVSDEDPEVKFNWYVDGVEVHNAKTKPREEQYNSTYRVVSVLTVLHQDWLNGKEYKCKVSNKALPKPIEKTISKAKGQPREPQVYTLPPSREEMTKNQVSLTCLVKGFYPSDIAVEWESNGQPENNYKTTPPVLDSDGSFFLYSKLTVDKSRWQQGNVFSCSVMHEALHNHYTQKSLSLSP light: DIVMTQSPATLSLSPGERATLSCTSSQSVYHANWLSWFQQKPGQPPKLLIYWASTLAYGVPSRFSGSGSGTDFTLTISSLQPEDAATYYCAGGYGGGRYAFGQGTKVEIKRTVAAPSVFIFPPSDEQLKSGTASVVCLLNNFYPREAKVQWKVDNALQSGNSQESVTEQDSKDSTYSLSSTLTLSKADYEKHKVYACEVTHQGLSSPVTKSFNRGEC"
9.6 fold,0.08 fold,6.2 fold,1.3 fold,3.4 fold,5.1 fold,1.5 fold,0.13 fold,"M103205H795-MY380/M103202L889-SK1 (antibody, human IgG1, kappa, Substitutions introduced into M103205H795-SG1, expressed with M103202L889-SK1 as light chain; EU numbering) heavy: QVTLKESGPVLVKPTETLTLTCTVSGIDLSHDDISWVRQAPGKGLEWVGIISYAGSTYYASWAKGRLTISKDTSKNQVVLTMTNMDPVDTATYYCARGVPAYSHGGDLWGQGTLVTVSSASTKGPSVFPLAPSSKSTSGGTAALGCLVKDYFPEPVTVSWNSGALTSGVHTFPAVLQSSGLYSLSSVVTVPSSSLGTQTYICNVNHKPSNTKVDKKVEPKSCDKTHTCPPCPAPELLNGPSVFLFPPKPKDTLMISRTPEVTCVVVDVSEEDPEVKFNWYVDGVEVHNAKTKPREEQYNSTYRVVSVLTVLHQDWLNGKEYKCKVSNKALPKPIEKTISKAKGQPREPQVYTLPPSREEMTKNQVSLTCLVKGFYPSDIAVEWESNGQPENNYKTTPKVLDSDGSFFLYSKLTVDKSRWQQGNVFSCSVMHEALHNHYTQKSLSLSP light: DIVMTQSPATLSLSPGERATLSCTSSQSVYHANWLSWFQQKPGQPPKLLIYWASTLAYGVPSRFSGSGSGTDFTLTISSLQPEDAATYYCAGGYGGGRYAFGQGTKVEIKRTVAAPSVFIFPPSDEQLKSGTASVVCLLNNFYPREAKVQWKVDNALQSGNSQESVTEQDSKDSTYSLSSTLTLSKADYEKHKVYACEVTHQGLSSPVTKSFNRGEC"
2.5 fold,0.17 fold,2.2 fold,3.5 fold,1.4 fold,2.7 fold,2.5 fold,0.14 fold,"M103205H795-MY387/M103202L889-SK1 (antibody, human IgG1, kappa, Substitutions introduced into M103205H795-SG1, expressed with M103202L889-SK1 as light chain; EU numbering) heavy: QVTLKESGPVLVKPTETLTLTCTVSGIDLSHDDISWVRQAPGKGLEWVGIISYAGSTYYASWAKGRLTISKDTSKNQVVLTMTNMDPVDTATYYCARGVPAYSHGGDLWGQGTLVTVSSASTKGPSVFPLAPSSKSTSGGTAALGCLVKDYFPEPVTVSWNSGALTSGVHTFPAVLQSSGLYSLSSVVTVPSSSLGTQTYICNVNHKPSNTKVDKKVEPKSCDKTHTCPPCPAPELLTGPVVFLFPPKPKDTLMISRTPEVTCVVVDVSDEDPEVKFNWYVDGVEVHNAKTKPREEQYNSTYRVVSVLTVLHQDWLNGKEYKCKVSNKALPKPIEKTISKAKGQPREPQVYTLPPSREEMTKNQVSLTCLVKGFYPSDIAVEWESNGQPENNYKTTPPVLDSDGSFFLYSKLTVDKSRWQQGNVFSCSVMHEALHNHYTQKSLSLSP light: DIVMTQSPATLSLSPGERATLSCTSSQSVYHANWLSWFQQKPGQPPKLLIYWASTLAYGVPSRFSGSGSGTDFTLTISSLQPEDAATYYCAGGYGGGRYAFGQGTKVEIKRTVAAPSVFIFPPSDEQLKSGTASVVCLLNNFYPREAKVQWKVDNALQSGNSQESVTEQDSKDSTYSLSSTLTLSKADYEKHKVYACEVTHQGLSSPVTKSFNRGEC"
1 fold,0.03 fold,1.1 fold,0.6 fold,0.6 fold,0.9 fold,0.9 fold,0.14 fold,"M103205H795-MY386/M103202L889-SK1 (antibody, human IgG1, kappa, Substitutions introduced into M103205H795-SG1, expressed with M103202L889-SK1 as light chain; EU numbering) heavy: QVTLKESGPVLVKPTETLTLTCTVSGIDLSHDDISWVRQAPGKGLEWVGIISYAGSTYYASWAKGRLTISKDTSKNQVVLTMTNMDPVDTATYYCARGVPAYSHGGDLWGQGTLVTVSSASTKGPSVFPLAPSSKSTSGGTAALGCLVKDYFPEPVTVSWNSGALTSGVHTFPAVLQSSGLYSLSSVVTVPSSSLGTQTYICNVNHKPSNTKVDKKVEPKSCDKTHTCPPCPAPELLLGPSVFLFPPKPKDTLMISRTPEVTCVVVDVSDEDPEVKFNWYVDGVEVHNAKTKPREELYNSTYRVVSVLTVLHQDWLNGKEYKCKVSNTALPKPIEKTISKAKGQPREPQVYTLPPSREEMTKNQVSLTCLVKGFYPSDIAVEWESNGQPENNYKTTPPVLDSDGSFFLYSKLTVDKSRWQQGNVFSCSVMHEALHNHYTQKSLSLSP light: DIVMTQSPATLSLSPGERATLSCTSSQSVYHANWLSWFQQKPGQPPKLLIYWASTLAYGVPSRFSGSGSGTDFTLTISSLQPEDAATYYCAGGYGGGRYAFGQGTKVEIKRTVAAPSVFIFPPSDEQLKSGTASVVCLLNNFYPREAKVQWKVDNALQSGNSQESVTEQDSKDSTYSLSSTLTLSKADYEKHKVYACEVTHQGLSSPVTKSFNRGEC"

# From patent publication US20200317768A1 (published 2020)
